In patent US20110118447A1:

Key:
[1] = biological target: binding partner of C5A (XPA23); test: Biacore
[2] = biological target: binding partner of C5A (XPA23); test: Biacore, K-off
[3] = biological target: binding partner of C5A (XPA23); test: Biacore K-off

B1: C5A (XPA23) VH F35D (antibody, V domains shown)
VH: EVQLLESGGGLVQPGGSLRLSCAASGFTFSKYFMDWVRQAPGKGLEWVSVISPSGGMTRYADSVKGRFTISRDNSKNTLYLQMNSLRAEDTAVYYCARVGYGGNSDYWGQGTLVTVSS
VL: DIQMTQSPSSVSASVGDRLTIICRASQDINRWLAWYQQTPGNAPKLLIHSATSLQSGVPSRFSGSGSGTDFTLTINSLQPEDFATYYCQQADSFPLTFGGGTKVEIK
In the case of B1, the fold affinity vs original [1] is reported as 0.06 fold and the fold difference in affinity vs original [2] is reported as 0.06 fold.

B2: C5A (XPA23) VH F35K (antibody, V domains shown)
VH: EVQLLESGGGLVQPGGSLRLSCAASGFTFSKYFMKWVRQAPGKGLEWVSVISPSGGMTRYADSVKGRFTISRDNSKNTLYLQMNSLRAEDTAVYYCARVGYGGNSDYWGQGTLVTVSS
VL: DIQMTQSPSSVSASVGDRLTIICRASQDINRWLAWYQQTPGNAPKLLIHSATSLQSGVPSRFSGSGSGTDFTLTINSLQPEDFATYYCQQADSFPLTFGGGTKVEIK
B2 gave a fold affinity vs original [1] of 0.68 fold and a fold difference in affinity vs original [2] of 0.68 fold.

B3: C5A (XPA23) VH S30W (antibody, V domains shown)
VH: EVQLLESGGGLVQPGGSLRLSCAASGFTFWKYFMFWVRQAPGKGLEWVSVISPSGGMTRYADSVKGRFTISRDNSKNTLYLQMNSLRAEDTAVYYCARVGYGGNSDYWGQGTLVTVSS
VL: DIQMTQSPSSVSASVGDRLTIICRASQDINRWLAWYQQTPGNAPKLLIHSATSLQSGVPSRFSGSGSGTDFTLTINSLQPEDFATYYCQQADSFPLTFGGGTKVEIK
B3 showed a fold affinity vs original [1] of 0.77 fold and a fold difference in affinity vs original [3] of 0.77 fold.

B4: C5A (XPA23) VH K31V (antibody, V domains shown)
VH: EVQLLESGGGLVQPGGSLRLSCAASGFTFSVYFMFWVRQAPGKGLEWVSVISPSGGMTRYADSVKGRFTISRDNSKNTLYLQMNSLRAEDTAVYYCARVGYGGNSDYWGQGTLVTVSS
VL: DIQMTQSPSSVSASVGDRLTIICRASQDINRWLAWYQQTPGNAPKLLIHSATSLQSGVPSRFSGSGSGTDFTLTINSLQPEDFATYYCQQADSFPLTFGGGTKVEIK
B4 showed a fold difference in affinity vs original [1] of 0.81 fold and a fold difference in affinity vs original [3] of 0.81 fold.

B5: C5A (XPA23) VH K31I (antibody, V domains shown)
VH: EVQLLESGGGLVQPGGSLRLSCAASGFTFSIYFMFWVRQAPGKGLEWVSVISPSGGMTRYADSVKGRFTISRDNSKNTLYLQMNSLRAEDTAVYYCARVGYGGNSDYWGQGTLVTVSS
VL: DIQMTQSPSSVSASVGDRLTIICRASQDINRWLAWYQQTPGNAPKLLIHSATSLQSGVPSRFSGSGSGTDFTLTINSLQPEDFATYYCQQADSFPLTFGGGTKVEIK
B5 showed a fold difference in affinity vs original [1] of 0.74 fold and a fold difference in affinity vs original [3] of 0.74 fold.

B6: C5A (XPA23) VH K31L (antibody, V domains shown)
VH: EVQLLESGGGLVQPGGSLRLSCAASGFTFSLYFMFWVRQAPGKGLEWVSVISPSGGMTRYADSVKGRFTISRDNSKNTLYLQMNSLRAEDTAVYYCARVGYGGNSDYWGQGTLVTVSS
VL: DIQMTQSPSSVSASVGDRLTIICRASQDINRWLAWYQQTPGNAPKLLIHSATSLQSGVPSRFSGSGSGTDFTLTINSLQPEDFATYYCQQADSFPLTFGGGTKVEIK
In the case of B6, the fold difference in affinity vs original [1] is reported as 1.08 fold and the fold difference in affinity vs original [3] is reported as 1.08 fold.

B7: C5A (XPA23) VH K31F (antibody, V domains shown)
VH: EVQLLESGGGLVQPGGSLRLSCAASGFTFSFYFMFWVRQAPGKGLEWVSVISPSGGMTRYADSVKGRFTISRDNSKNTLYLQMNSLRAEDTAVYYCARVGYGGNSDYWGQGTLVTVSS
VL: DIQMTQSPSSVSASVGDRLTIICRASQDINRWLAWYQQTPGNAPKLLIHSATSLQSGVPSRFSGSGSGTDFTLTINSLQPEDFATYYCQQADSFPLTFGGGTKVEIK
Binder B7 has a fold affinity vs original [1] of 0.05 fold and a fold difference in affinity vs original [3] of 0.05 fold.

B8: C5A (XPA23) VH K31W (antibody, V domains shown)
VH: EVQLLESGGGLVQPGGSLRLSCAASGFTFSWYFMFWVRQAPGKGLEWVSVISPSGGMTRYADSVKGRFTISRDNSKNTLYLQMNSLRAEDTAVYYCARVGYGGNSDYWGQGTLVTVSS
VL: DIQMTQSPSSVSASVGDRLTIICRASQDINRWLAWYQQTPGNAPKLLIHSATSLQSGVPSRFSGSGSGTDFTLTINSLQPEDFATYYCQQADSFPLTFGGGTKVEIK
B8 showed a fold affinity vs original [1] of 0.84 fold and a fold difference in affinity vs original [3] of 0.84 fold.

B9: C5A (XPA23) VH Y32G (antibody, V domains shown)
VH: EVQLLESGGGLVQPGGSLRLSCAASGFTFSKGFMFWVRQAPGKGLEWVSVISPSGGMTRYADSVKGRFTISRDNSKNTLYLQMNSLRAEDTAVYYCARVGYGGNSDYWGQGTLVTVSS
VL: DIQMTQSPSSVSASVGDRLTIICRASQDINRWLAWYQQTPGNAPKLLIHSATSLQSGVPSRFSGSGSGTDFTLTINSLQPEDFATYYCQQADSFPLTFGGGTKVEIK
For B9, the fold difference in affinity vs original [1] was 1 fold and the fold difference in affinity vs original [3] was 1 fold.

B10: C5A (XPA23) VH Y32V (antibody, V domains shown)
VH: EVQLLESGGGLVQPGGSLRLSCAASGFTFSKVFMFWVRQAPGKGLEWVSVISPSGGMTRYADSVKGRFTISRDNSKNTLYLQMNSLRAEDTAVYYCARVGYGGNSDYWGQGTLVTVSS
VL: DIQMTQSPSSVSASVGDRLTIICRASQDINRWLAWYQQTPGNAPKLLIHSATSLQSGVPSRFSGSGSGTDFTLTINSLQPEDFATYYCQQADSFPLTFGGGTKVEIK
B10 was tested, and the fold difference in affinity vs original [1] was 1.07 fold and the fold difference in affinity vs original [3] was 1.07 fold.

B11: C5A (XPA23) VH Y32L (antibody, V domains shown)
VH: EVQLLESGGGLVQPGGSLRLSCAASGFTFSKLFMFWVRQAPGKGLEWVSVISPSGGMTRYADSVKGRFTISRDNSKNTLYLQMNSLRAEDTAVYYCARVGYGGNSDYWGQGTLVTVSS
VL: DIQMTQSPSSVSASVGDRLTIICRASQDINRWLAWYQQTPGNAPKLLIHSATSLQSGVPSRFSGSGSGTDFTLTINSLQPEDFATYYCQQADSFPLTFGGGTKVEIK
B11 showed a fold difference in affinity vs original [1] of 0.75 fold and a fold difference in affinity vs original [3] of 0.75 fold.

B12: C5A (XPA23) VH Y32F (antibody, V domains shown)
VH: EVQLLESGGGLVQPGGSLRLSCAASGFTFSKFFMFWVRQAPGKGLEWVSVISPSGGMTRYADSVKGRFTISRDNSKNTLYLQMNSLRAEDTAVYYCARVGYGGNSDYWGQGTLVTVSS
VL: DIQMTQSPSSVSASVGDRLTIICRASQDINRWLAWYQQTPGNAPKLLIHSATSLQSGVPSRFSGSGSGTDFTLTINSLQPEDFATYYCQQADSFPLTFGGGTKVEIK
Work on B12 yielded a fold affinity vs original [1] of 0.75 fold and a fold difference in affinity vs original [3] of 0.75 fold.

B13: C5A (XPA23) VH Y32P (antibody, V domains shown)
VH: EVQLLESGGGLVQPGGSLRLSCAASGFTFSKPFMFWVRQAPGKGLEWVSVISPSGGMTRYADSVKGRFTISRDNSKNTLYLQMNSLRAEDTAVYYCARVGYGGNSDYWGQGTLVTVSS
VL: DIQMTQSPSSVSASVGDRLTIICRASQDINRWLAWYQQTPGNAPKLLIHSATSLQSGVPSRFSGSGSGTDFTLTINSLQPEDFATYYCQQADSFPLTFGGGTKVEIK
In the case of B13, the fold difference in affinity vs original [1] is reported as 0.68 fold and the fold difference in affinity vs original [3] is reported as 0.68 fold.

B14: C5A (XPA23) VH F33G (antibody, V domains shown)
VH: EVQLLESGGGLVQPGGSLRLSCAASGFTFSKYGMFWVRQAPGKGLEWVSVISPSGGMTRYADSVKGRFTISRDNSKNTLYLQMNSLRAEDTAVYYCARVGYGGNSDYWGQGTLVTVSS
VL: DIQMTQSPSSVSASVGDRLTIICRASQDINRWLAWYQQTPGNAPKLLIHSATSLQSGVPSRFSGSGSGTDFTLTINSLQPEDFATYYCQQADSFPLTFGGGTKVEIK
B14 gave a fold difference in affinity vs original [1] of 0.76 fold and a fold difference in affinity vs original [3] of 0.76 fold.

B15: C5A (XPA23) VH F33A (antibody, V domains shown)
VH: EVQLLESGGGLVQPGGSLRLSCAASGFTFSKYAMFWVRQAPGKGLEWVSVISPSGGMTRYADSVKGRFTISRDNSKNTLYLQMNSLRAEDTAVYYCARVGYGGNSDYWGQGTLVTVSS
VL: DIQMTQSPSSVSASVGDRLTIICRASQDINRWLAWYQQTPGNAPKLLIHSATSLQSGVPSRFSGSGSGTDFTLTINSLQPEDFATYYCQQADSFPLTFGGGTKVEIK
Binder B15 has a fold difference in affinity vs original [1] of 0.75 fold and a fold difference in affinity vs original [3] of 0.75 fold.

B16: C5A (XPA23) VH F33V (antibody, V domains shown)
VH: EVQLLESGGGLVQPGGSLRLSCAASGFTFSKYVMFWVRQAPGKGLEWVSVISPSGGMTRYADSVKGRFTISRDNSKNTLYLQMNSLRAEDTAVYYCARVGYGGNSDYWGQGTLVTVSS
VL: DIQMTQSPSSVSASVGDRLTIICRASQDINRWLAWYQQTPGNAPKLLIHSATSLQSGVPSRFSGSGSGTDFTLTINSLQPEDFATYYCQQADSFPLTFGGGTKVEIK
B16 showed a fold difference in affinity vs original [1] of 0.76 fold and a fold difference in affinity vs original [3] of 0.76 fold.

B17: C5A (XPA23) VH F33I (antibody, V domains shown)
VH: EVQLLESGGGLVQPGGSLRLSCAASGFTFSKYIMFWVRQAPGKGLEWVSVISPSGGMTRYADSVKGRFTISRDNSKNTLYLQMNSLRAEDTAVYYCARVGYGGNSDYWGQGTLVTVSS
VL: DIQMTQSPSSVSASVGDRLTIICRASQDINRWLAWYQQTPGNAPKLLIHSATSLQSGVPSRFSGSGSGTDFTLTINSLQPEDFATYYCQQADSFPLTFGGGTKVEIK
For B17, the fold difference in affinity vs original [1] was 0.75 fold and the fold difference in affinity vs original [3] was 0.75 fold.

B18: C5A (XPA23) VH F33L (antibody, V domains shown)
VH: EVQLLESGGGLVQPGGSLRLSCAASGFTFSKYLMFWVRQAPGKGLEWVSVISPSGGMTRYADSVKGRFTISRDNSKNTLYLQMNSLRAEDTAVYYCARVGYGGNSDYWGQGTLVTVSS
VL: DIQMTQSPSSVSASVGDRLTIICRASQDINRWLAWYQQTPGNAPKLLIHSATSLQSGVPSRFSGSGSGTDFTLTINSLQPEDFATYYCQQADSFPLTFGGGTKVEIK
Work on B18 yielded a fold difference in affinity vs original [1] of 0.88 fold and a fold difference in affinity vs original [3] of 0.88 fold.

B19: C5A (XPA23) VH F33W (antibody, V domains shown)
VH: EVQLLESGGGLVQPGGSLRLSCAASGFTFSKYWMFWVRQAPGKGLEWVSVISPSGGMTRYADSVKGRFTISRDNSKNTLYLQMNSLRAEDTAVYYCARVGYGGNSDYWGQGTLVTVSS
VL: DIQMTQSPSSVSASVGDRLTIICRASQDINRWLAWYQQTPGNAPKLLIHSATSLQSGVPSRFSGSGSGTDFTLTINSLQPEDFATYYCQQADSFPLTFGGGTKVEIK
With B19 the fold affinity vs original [1] was 0.79 fold and the fold difference in affinity vs original [3] was 0.79 fold.

B20: C5A (XPA23) VH F33P (antibody, V domains shown)
VH: EVQLLESGGGLVQPGGSLRLSCAASGFTFSKYPMFWVRQAPGKGLEWVSVISPSGGMTRYADSVKGRFTISRDNSKNTLYLQMNSLRAEDTAVYYCARVGYGGNSDYWGQGTLVTVSS
VL: DIQMTQSPSSVSASVGDRLTIICRASQDINRWLAWYQQTPGNAPKLLIHSATSLQSGVPSRFSGSGSGTDFTLTINSLQPEDFATYYCQQADSFPLTFGGGTKVEIK
B20 showed a fold difference in affinity vs original [1] of 0.91 fold and a fold difference in affinity vs original [3] of 0.91 fold.
